Drawing on paper PMC13137875, this text covers Kd and stoichiometry N for two substances.

Where “and” joins values, the source holds several entries; their conditions need not be identical. Equal values may be shown once.

Assay [1] addresses G-actin (Oryctolagus cuniculus) (UniProt P68135). The conditions noted are these: cited from earlier work.
Assay [2] concerns the target Rabbit skeletal muscle actin (G-actin) (rabbit) (UniProt P68135). The experiment in a line: SEC-SAXS. (SEC sorts molecules by how far they enter the pores of the column.)

By Kd is commonly meant the equilibrium constant for the complex coming apart. With Sca2 (from UniProt Q92JF7), the Kd in assay [1] is 20 nM and 200 nM.

The term stoichiometry N denotes a count of units in the complex or per binding partner. Take “R. bellii MBP-Sca2/6 (maltose-binding protein tagged passenger domain of Sca2/6) (domain or fragment)”: the stoichiometry N in assay [2] stood at 1.
